Key:
[1] = target: HLA-B*53:01; experiment: IEDB peptide-MHC binding, purified MHC/competitive/radioactivity; filed as Kd, often an IC50 or EC50 that approximates it; ≥ and ≤ were set here for values at or beyond the usual limits of such assays
[2] = target: HLA-A*30:02; experiment: as above
[3] = target: HLA-A*02:01; experiment: IEDB peptide-MHC binding, purified MHC/competitive/fluorescence; filed as Kd, often an IC50 or EC50 that approximates it; ≥ and ≤ were set here for values at or beyond the usual limits of such assays
[4] = target: HLA-B*40:01; experiment: IEDB peptide-MHC binding, purified MHC/direct/fluorescence; filed as Kd, often an IC50 or EC50 that approximates it; ≥ and ≤ were set here for values at or beyond the usual limits of such assays
[5] = target: HLA-A*02:01; experiment: as above
[6] = target: HLA-A*69:01; experiment: as above
[7] = target: HLA-B*07:02; experiment: as above
[8] = target: HLA-B*58:01; experiment: as above
[9] = target: HLA-B*51:01; experiment: IEDB peptide-MHC binding, purified MHC/competitive/radioactivity; filed as Kd, often an IC50 or EC50 that approximates it; ≥ and ≤ were set here for values at or beyond the usual limits of such assays
[10] = target: HLA-A*01:01; experiment: IEDB peptide-MHC binding, purified MHC/direct/fluorescence; filed as Kd, often an IC50 or EC50 that approximates it; ≥ and ≤ were set here for values at or beyond the usual limits of such assays; details: source organism: Homo sapiens
[11] = target: HLA-A*11:01; experiment: as above
[12] = target: HLA-A*03:01; experiment: as above
[13] = target: HLA-A*02:02; experiment: IEDB peptide-MHC binding, purified MHC/competitive/radioactivity; filed as Kd, often an IC50 or EC50 that approximates it; ≥ and ≤ were set here for values at or beyond the usual limits of such assays
[14] = target: HLA-A*02:03; experiment: as above
[15] = target: HLA-A*02:06; experiment: as above
[16] = target: HLA-B*15:01; experiment: IEDB peptide-MHC binding, purified MHC/direct/fluorescence; filed as Kd, often an IC50 or EC50 that approximates it; ≥ and ≤ were set here for values at or beyond the usual limits of such assays; details: source organism: Yellow fever virus 17D
[17] = source organism: Dengue virus 2 Jamaica/1409/1983
[18] = source organism: Dengue virus 4 Philippines/H241/1956
[19] = source organism: Dengue virus 3 Martinique/1243/1999
[20] = source organism: Campylobacter jejuni RM1221
[21] = source organism: Vaccinia virus WR
[22] = source organism: Dengue virus 1 Brazil/97-11/1997
[23] = source organism: West Nile virus
[24] = source organism: Orthomarburgvirus marburgense
[25] = source organism: Dengue virus 3 Singapore/8120/1995
[26] = source organism: Cryptosporidium hominis
[27] = source organism: Mammarenavirus whitewaterense
[28] = source organism: SARS coronavirus Tor2
[29] = source organism: Human immunodeficiency virus 1
[30] = source organism: Mammarenavirus brazilense

Question: Which Kd [1, 17] does the source give for PPTAGILKRW here?
Answer: 3270 nM

Question: With RFLGEDGCWY as the sequence, how does the Kd [2, 18] read?
Answer: 26.3 nM

Question: With IMLKANFSV as the sequence, how does the Kd ([3]; source organism: Influenza A virus (A/Hokkaido/20/89(H3N2))) read?
Answer: 0.3 nM

Question: How did the Kd [2, 19] turn out when GCGRGGWSYY was run?
Answer: 9.43 nM

Question: Which Kd ([4]; source organism: Mammarenavirus lassaense) does the source give for EEFCDMLRL here?
Answer: 255 nM

Question: Which results are given for GIYHDICEI?
Answer: Kd [5, 20]: 162 nM; Kd [6, 20]: ≥ 20000 nM

Question: Which Kd ([7]; source organism: Homo sapiens) does the source give for YPAEITLTW here?
Answer: 147 nM

Question: What about the Kd ([8]; source organism: Homo sapiens) of the same sequence?
Answer: 55 nM

Question: Which Kd [2, 19] does the source give for IWLKLREVY here?
Answer: ≥ 76900 nM

Question: CAIILGGLTW was tested. Which Kd [1, 18] did it give?
Answer: 549 nM

Question: With VPLAGPMVA as the sequence, how does the Kd [9, 18] read?
Answer: 17000 nM

Question: LLFLKDVEP was tested. Which Kd [3, 21] did it give?
Answer: 13.4 nM

Question: TPEGEVGAI was tested. Which Kd [1, 22] did it give?
Answer: ≥ 40200 nM

Question: With KVASEGFQY as the sequence, how does the Kd [2, 22] read?
Answer: 28.9 nM

Question: DSDGSFFLY was tested. Which Kd [10] did it give?
Answer: 25 nM

Question: And the Kd ([11]; source organism: Homo sapiens)?
Answer: ≥ 20600 nM

Question: What about the Kd ([6]; source organism: Homo sapiens) of the same sequence?
Answer: ≥ 25100 nM

Question: Which Kd [9, 19] does the source give for LAYVVIGIL here?
Answer: 1320 nM

Question: With VHQVFGTAY as the sequence, how does the Kd [2, 22] read?
Answer: 599 nM

Question: YLIHDNIMYT was tested. Which Kd [3, 21] did it give?
Answer: 1.4 nM

Question: Which Kd [12, 23] does the source give for GVNKQTAMK here?
Answer: 600 nM

Question: And the Kd [11, 23]?
Answer: 20.3 nM

Question: How did the Kd [9, 18] turn out when LAGFMAYMI was run?
Answer: 7090 nM

Question: What about the Kd [1, 18] of the same sequence?
Answer: 2120 nM

Question: For KISNTTFEV, which Kd ([3]; source organism: Vaccinia virus) is on record?
Answer: 1.9 nM

Question: Which Kd ([12]; source organism: Salmonella enterica subsp. enterica serovar Typhi) does the source give for HLALTCILK here?
Answer: 123 nM

Question: How did the Kd [9, 19] turn out when LPEEQDQNYV was run?
Answer: 11900 nM

Question: EEFFCVHGM was tested. Which Kd ([4]; source organism: Mycobacterium tuberculosis) did it give?
Answer: 167 nM

Question: For PPFGESNIV, which Kd [9, 19] is on record?
Answer: 1790 nM

Question: With FGCKPLTMFL as the sequence, how does the Kd [9, 22] read?
Answer: ≥ 35100 nM

Question: With EVLMSPCRM as the sequence, how does the Kd [13, 21] read?
Answer: 6830 nM

Question: And the Kd [14, 21]?
Answer: 651 nM

Question: And the Kd [15, 21]?
Answer: 11800 nM

Question: How did the Kd [13, 21] turn out when NTIDKSSPL was run?
Answer: 82.3 nM

Question: And the Kd [14, 21]?
Answer: 27.1 nM

Question: And the Kd [15, 21]?
Answer: 18.6 nM

Question: With KLTFLDVEV as the sequence, how does the Kd ([3]; source organism: Variola virus) read?
Answer: 10.1 nM

Question: For LISSDGARVI, which Kd [13, 21] is on record?
Answer: 7180 nM

Question: What about the Kd [14, 21] of the same sequence?
Answer: 1150 nM

Question: And the Kd [15, 21]?
Answer: ≥ 35000 nM

Question: How did the Kd [13, 21] turn out when KQNKFGDSPL was run?
Answer: 89.6 nM

Question: What about the Kd [14, 21] of the same sequence?
Answer: 216 nM

Question: What about the Kd [15, 21] of the same sequence?
Answer: 5080 nM

Question: How did the Kd ([2]; source organism: Dengue virus 1 Nauru/West Pac/1974) turn out when QNKEGDQYIY was run?
Answer: 1350 nM

Question: For KGGEAQFLV, which Kd ([8]; source organism: Pseudomonas aeruginosa) is on record?
Answer: 738 nM

Question: How did the Kd [13, 21] turn out when EIVKNIREGT was run?
Answer: ≥ 28500 nM

Question: What about the Kd [14, 21] of the same sequence?
Answer: 8530 nM

Question: What about the Kd [15, 21] of the same sequence?
Answer: ≥ 60700 nM

Question: Which results are given for PLKDVERLQM?
Answer: Kd [13, 21]: 6160 nM; Kd [14, 21]: ≥ 44000 nM; Kd [15, 21]: ≥ 37300 nM

Question: For SVKEDLVAY, which Kd [16] is on record?
Answer: 95.5 nM

Question: MVEYLENQL was tested. Which Kd [13, 21] did it give?
Answer: 343 nM

Question: And the Kd [14, 21]?
Answer: 6460 nM

Question: And the Kd [15, 21]?
Answer: 3960 nM

Question: GLYPQLSAI was tested. Which Kd [5, 24] did it give?
Answer: 123 nM

Question: And the Kd [6, 24]?
Answer: 3860 nM

Question: For NIKISLNEIL, which Kd [13, 21] is on record?
Answer: 705 nM

Question: And the Kd [14, 21]?
Answer: 1390 nM

Question: What about the Kd [15, 21] of the same sequence?
Answer: 557 nM

Question: IAGGVCYYLL was tested. Which Kd [13, 21] did it give?
Answer: 4580 nM

Question: What about the Kd [14, 21] of the same sequence?
Answer: 14600 nM

Question: What about the Kd [15, 21] of the same sequence?
Answer: 656 nM

Question: LIVILFIMFM was tested. Which Kd [13, 21] did it give?
Answer: 85.1 nM

Question: And the Kd [14, 21]?
Answer: 433 nM

Question: What about the Kd [15, 21] of the same sequence?
Answer: 120 nM

Question: For IMKQAASMK, which Kd ([12]; source organism: Giardia lamblia ATCC 50803) is on record?
Answer: 63.5 nM

Question: Which Kd [13, 21] does the source give for LAEHISDSI here?
Answer: 45.2 nM

Question: What about the Kd [14, 21] of the same sequence?
Answer: 731 nM

Question: What about the Kd [15, 21] of the same sequence?
Answer: 19200 nM

Question: Which Kd ([7]; source organism: Danio rerio) does the source give for AARHKHQVM here?
Answer: 64.8 nM

Question: With MPGTRKVMEI as the sequence, how does the Kd [9, 25] read?
Answer: 1100 nM

Question: And the Kd [1, 25]?
Answer: 76.4 nM

Question: How did the Kd [15, 22] turn out when WAYHGSYEV was run?
Answer: 24.5 nM

Question: And the Kd [9, 22]?
Answer: 11.1 nM

Question: How did the Kd ([11]; source organism: SARS-CoV1) turn out when VPGLPGTVL was run?
Answer: 4550 nM

Question: And the Kd ([7]; source organism: SARS-CoV1)?
Answer: 91.5 nM

Question: How did the Kd [5, 26] turn out when SGFGGETPV was run?
Answer: 863 nM

Question: What about the Kd [6, 26] of the same sequence?
Answer: 13500 nM

Question: VMGITAEWLW was tested. Which Kd [1, 19] did it give?
Answer: 39.9 nM

Question: KTVAGSFAS was tested. Which Kd [13, 27] did it give?
Answer: 1590 nM

Question: And the Kd [14, 27]?
Answer: 3810 nM

Question: What about the Kd [15, 27] of the same sequence?
Answer: 9130 nM

Question: For FLTNKLLLFA, which Kd [13, 28] is on record?
Answer: 0.417 nM

Question: What about the Kd [14, 28] of the same sequence?
Answer: 1.41 nM

Question: And the Kd [15, 28]?
Answer: 7.47 nM

Question: For CNLTSTWVTY, which Kd [2, 19] is on record?
Answer: ≥ 68900 nM

Question: For ATPQDLNTM, which Kd [5, 29] is on record?
Answer: ≥ 28800 nM

Question: What about the Kd [7, 29] of the same sequence?
Answer: 11200 nM

Question: Which results are given for YVHSLLYSSM?
Answer: Kd [13, 21]: 2200 nM; Kd [14, 21]: 6710 nM; Kd [15, 21]: 2250 nM

Question: With KILSDENYL as the sequence, how does the Kd [13, 21] read?
Answer: 196 nM

Question: And the Kd [14, 21]?
Answer: 1170 nM

Question: And the Kd [15, 21]?
Answer: 27.6 nM

Question: Which Kd [11, 23] does the source give for VLSLIGLKR here?
Answer: ≥ 20000 nM

Question: For QLMCQPILLL, which Kd [13, 28] is on record?
Answer: 92.3 nM

Question: And the Kd [14, 28]?
Answer: 217 nM

Question: And the Kd [15, 28]?
Answer: 325 nM

Question: YAQIQPHWI was tested. Which Kd [9, 17] did it give?
Answer: 1080 nM

Question: Which Kd [13, 21] does the source give for PTSETMYLT here?
Answer: 10400 nM

Question: And the Kd [14, 21]?
Answer: 3640 nM

Question: And the Kd [15, 21]?
Answer: ≥ 77100 nM

Question: Which results are given for HSLPRCWLV?
Answer: Kd [13, 30]: 654 nM; Kd [14, 30]: 146 nM; Kd [15, 30]: 322 nM
